In paper PMC8298264, “Function of cofactor Akirin2 in the regulation of gene expression in model human neutrophil-like HL60 cells” (Bioscience Reports, 2021):

B1: sp¦P61009¦SPCS3_HUMAN (protein, UniProt P61009 1-180, looked up)
Signal peptidase complex …: MNTVLSRANSLFAFSLSVMAALTFGCFITTAFKDRSVPVRLHVSRIMLKNVEDFTGPRERSDLGFITFDITADLENIFDWNVKQLFLYLSAEYSTKNNALNQVVLWDKIVLRGDNPKLLLKDMKTKYFFFDDGNGLKGNRNVTLTLSWNVVPNAGILPLVTGSGHVSVPFPDTYEITKSY
B2: sp¦Q9Y5Y2¦NUBP2_HUMAN (protein, UniProt Q9Y5Y2 1-271, looked up)
Cytosolic Fe-S cluster …: MEAAAEPGNLAGVRHIILVLSGKGGVGKSTISTELALALRHAGKKVGILDVDLCGPSIPRMLGAQGRAVHQCDRGWAPVFLDREQSISLMSVGFLLEKPDEAVVWRGPKKNALIKQFVSDVAWGELDYLVVDTPPGTSDEHMATIEALRPYQPLGALVVTTPQAVSVGDVRRELTFCRKTGLRVMGIVENMSGFTCPHCTECTSVFSRGGGEELAQLAGVPFLGSVPLDPALMRTLEEGHDFIQEFPGSPAFAALTSIAQKILDATPACLP
B3: sp¦P41250¦GARS_HUMAN (protein, UniProt P41250 37-739, looked up)
Glycine--tRNA ligase: SAASCPPISLPAAASRSSMDGAGAEEVLAPLRLAVRQQGDLVRKLKEDKAPQVDVDKAVAELKARKRVLEAKELALQPKDDIVDRAKMEDTLKRRFFYDQAFAIYGGVSGLYDFGPVGCALKNNIIQTWRQHFIQEEQILEIDCTMLTPEPVLKTSGHVDKFADFMVKDVKNGECFRADHLLKAHLQKLMSDKKCSVEKKSEMESVLAQLDNYGQQELADLFVNYNVKSPITGNDLSPPVSFNLMFKTFIGPGGNMPGYLRPETAQGIFLNFKRLLEFNQGKLPFAAAQIGNSFRNEISPRSGLIRVREFTMAEIEHFVDPSEKDHPKFQNVADLHLYLYSAKAQVSGQSARKMRLGDAVEQGVINNTVLGYFIGRIYLYLTKVGISPDKLRFRQHMENEMAHYACDCWDAESKTSYGWIEIVGCADRSCYDLSCHARATKVPLVAEKPLKEPKTVNVVQFEPSKGAIGKAYKKDAKLVMEYLAICDECYITEMEMLLNEKGEFTIETEGKTFQLTKDMINVKRFQKTLYVEEVVPNVIEPSFGLGRIMYTVFEHTFHVREGDEQRTFFSFPAVVAPFKCSVLPLSQNQEFMPFVKELSEALTRHGVSHKVDDSSGSIGRRYARTDEIGVAFGVTIDFDTVNKTPHTATLRDRDSMRQIRAEISELPSIVQDLANGNITWADVEARYPLFEGQETGKKETIEE
B4: sp¦P62995¦TRA2B_HUMAN (protein, UniProt P62995 2-288, looked up)
Transformer-2 protein homolog …: SDSGEQNYGERESRSASRSGSAHGSGKSARHTPARSRSKEDSRRSRSKSRSRSESRSRSRRSSRRHYTRSRSRSRSHRRSRSRSYSRDYRRRHSHSHSPMSTRRRHVGNRANPDPNCCLGVFGLSLYTTERDLREVFSKYGPIADVSIVYDQQSRRSRGFAFVYFENVDDAKEAKERANGMELDGRRIRVDFSITKRPHTPTPGIYMGRPTYGSSRRRDYYDRGYDRGYDDRDYYSRSYRGGGGGGGGWRAAQDRDQIYRRRSPSPYYSRGGYRSRSRSRSYSPRRY
B5: sp¦Q8N335¦GPD1L_HUMAN (protein, UniProt Q8N335 1-351, looked up)
Glycerol-3-phosphate …: MAAAPLKVCIVGSGNWGSAVAKIIGNNVKKLQKFASTVKMWVFEETVNGRKLTDIINNDHENVKYLPGHKLPENVVAMSNLSEAVQDADLLVFVIPHQFIHRICDEITGRVPKKALGITLIKGIDEGPEGLKLISDIIREKMGIDISVLMGANIANEVAAEKFCETTIGSKVMENGLLFKELLQTPNFRITVVDDADTVELCGALKNIVAVGAGFCDGLRCGDNTKAAVIRLGLMEMIAFARIFCKGQVSTATFLESCGVADLITTCYGGRNRRVAEAFARTGKTIEELEKEMLNGQKLQGPQTSAEVYRILKQKGLLDKFPLFTAVYQICYESRPVQEMLSCLQSHPEHT
B6: sp¦Q8TCS8¦PNPT1_HUMAN (protein, UniProt Q8TCS8 46-783, looked up)
Polyribonucleotide …: AVAVDLGNRKLEISSGKLARFADGSAVVQSGDTAVMVTAVSKTKPSPSQFMPLVVDYRQKAAAAGRIPTNYLRREIGTSDKEILTSRIIDRSIRPLFPAGYFYDTQVLCNLLAVDGVNEPDVLAINGASVALSLSDIPWNGPVGAVRIGIIDGEYVVNPTRKEMSSSTLNLVVAGAPKSQIVMLEASAENILQQDFCHAIKVGVKYTQQIIQGIQQLVKETGVTKRTPQKLFTPSPEIVKYTHKLAMERLYAVFTDYEHDKVSRDEAVNKIRLDTEEQLKEKFPEADPYEIIESFNVVAKEVFRSIVLNEYKRCDGRDLTSLRNVSCEVDMFKTLHGSALFQRGQTQVLCTVTFDSLESGIKSDQVITAINGIKDKNFMLHYEFPPYATNEIGKVTGLNRRELGHGALAEKALYPVIPRDFPFTIRVTSEVLESNGSSSMASACGGSLALMDSGVPISSAVAGVAIGLVTKTDPEKGEIEDYRLLTDILGIEDYNGDMDFKIAGTNKGITALQADIKLPGIPIKIVMEAIQQASVAKKEILQIMNKTISKPRASRKENGPVVETVQVPLSKRAKFVGPGGYNLKKLQAETGVTISQVDEETFSVFAPTPSAMHEARDFITEICKDDQEQQLEFGAVYTATITEIRDTGVMVKLYPNMTAVLLHNTQLDQRKIKHPTALGLEVGQEIQVKYFGRDPADGRMRLSRKVLQSPATTVVRTLNDRSSIVMGEPISQSSSNSQ
B7: sp¦O96008¦TOM40_HUMAN (protein, UniProt O96008 1-361, looked up)
Mitochondrial import receptor …: MGNVLAASSPPAGPPPPPAPALVGLPPPPPSPPGFTLPPLGGSLGAGTSTSRSSERTPGAATASASGAAEDGACGCLPNPGTFEECHRKCKELFPIQMEGVKLTVNKGLSNHFQVNHTVALSTIGESNYHFGVTYVGTKQLSPTEAFPVLVGDMDNSGSLNAQVIHQLGPGLRSKMAIQTQQSKFVNWQVDGEYRGSDFTAAVTLGNPDVLVGSGILVAHYLQSITPCLALGGELVYHRRPGEEGTVMSLAGKYTLNNWLATVTLGQAGMHATYYHKASDQLQVGVEFEASTRMQDTSVSFGYQLDLPKANLLFKGSVDSNWIVGATLEKKLPPLPLTLALGAFLNHRKNKFQCGFGLTIG
B8: sp¦Q15654¦TRIP6_HUMAN (protein, UniProt Q15654 1-476, looked up)
Thyroid receptor-interacting …: MSGPTWLPPKQPEPARAPQGRAIPRGTPGPPPAHGAALQPHPRVNFCPLPSEQCYQAPGGPEDRGPAWVGSHGVLQHTQGLPADRGGLRPGSLDAEIDLLSSTLAELNGGRGHASRRPDRQAYEPPPPPAYRTGSLKPNPASPLPASPYGGPTPASYTTASTPAGPAFPVQVKVAQPVRGCGPPRRGASQASGPLPGPHFPLPGRGEVWGPGYRSQREPGPGAKEEAAGVSGPAGRGRGGEHGPQVPLSQPPEDELDRLTKKLVHDMNHPPSGEYFGQCGGCGEDVVGDGAGVVALDRVFHVGCFVCSTCRAQLRGQHFYAVERRAYCEGCYVATLEKCATCSQPILDRILRAMGKAYHPGCFTCVVCHRGLDGIPFTVDATSQIHCIEDFHRKFAPRCSVCGGAIMPEPGQEETVRIVALDRSFHIGCYKCEECGLLLSSEGECQGCYPLDGHILCKACSAWRIQELSATVTTDC
B9: sp¦P40926¦MDHM_HUMAN (protein, UniProt P40926 25-338, looked up)
Malate dehydrogenase, …: AKVAVLGASGGIGQPLSLLLKNSPLVSRLTLYDIAHTPGVAADLSHIETKAAVKGYLGPEQLPDCLKGCDVVVIPAGVPRKPGMTRDDLFNTNATIVATLTAACAQHCPEAMICVIANPVNSTIPITAEVFKKHGVYNPNKIFGVTTLDIVRANTFVAELKGLDPARVNVPVIGGHAGKTIIPLISQCTPKVDFPQDQLTALTGRIQEAGTEVVKAKAGAGSATLSMAYAGARFVFSLVDAMNGKEGVVECSFVKSQETECTYFSTPLLLGKKGIEKNLGIGKVSSFEEKMISDAIPELKASIKKGEDFVKTLK
B10: sp¦Q9HDC9¦APMAP_HUMAN (protein, UniProt Q9HDC9 2-416, looked up)
Adipocyte plasma …: SEADGLRQRRPLRPQVVTDDDGQAPEAKDGSSFSGRVFRVTFLMLAVSLTVPLLGAMMLLESPIDPQPLSFKEPPLLLGVLHPNTKLRQAERLFENQLVGPESIAHIGDVMFTGTADGRVVKLENGEIETIARFGSGPCKTRDDEPVCGRPLGIRAGPNGTLFVADAYKGLFEVNPWKREVKLLLSSETPIEGKNMSFVNDLTVTQDGRKIYFTDSSSKWQRRDYLLLVMEGTDDGRLLEYDTVTREVKVLLDQLRFPNGVQLSPAEDFVLVAETTMARIRRVYVSGLMKGGADLFVENMPGFPDNIRPSSSGGYWVGMSTIRPNPGFSMLDFLSERPWIKRMIFKLFSQETVMKFVPRYSLVLELSDSGAFRRSLHDPDGLVATYISEVHEHDGHLYLGSFRSPFLCRLSLQAV
B11: sp¦P54577¦SYYC_HUMAN (protein, UniProt P54577 1-528, looked up)
Tyrosine--tRNA ligase, …: MGDAPSPEEKLHLITRNLQEVLGEEKLKEILKERELKIYWGTATTGKPHVAYFVPMSKIADFLKAGCEVTILFADLHAYLDNMKAPWELLELRVSYYENVIKAMLESIGVPLEKLKFIKGTDYQLSKEYTLDVYRLSSVVTQHDSKKAGAEVVKQVEHPLLSGLLYPGLQALDEEYLKVDAQFGGIDQRKIFTFAEKYLPALGYSKRVHLMNPMVPGLTGSKMSSSEEESKIDLLDRKEDVKKKLKKAFCEPGNVENNGVLSFIKHVLFPLKSEFVILRDEKWGGNKTYTAYVDLEKDFAAEVVHPGDLKNSVEVALNKLLDPIREKFNTPALKKLASAAYPDPSKQKPMAKGPAKNSEPEEVIPSRLDIRVGKIITVEKHPDADSLYVEKIDVGEAEPRTVVSGLVQFVPKEELQDRLVVVLCNLKPQKMRGVESQGMLLCASIEGINRQVEPLDPPAGSAPGEHVFVKGYEKGQPDEELKPKKKVFEKLQADFKISEECIAQWKQTNFMTKLGSISCKSLKGGNIS
B12: sp¦P43034¦LIS1_HUMAN (protein, UniProt P43034 1-410, looked up)
Platelet-activating factor …: MVLSQRQRDELNRAIADYLRSNGYEEAYSVFKKEAELDVNEELDKKYAGLLEKKWTSVIRLQKKVMELESKLNEAKEEFTSGGPLGQKRDPKEWIPRPPEKYALSGHRSPVTRVIFHPVFSVMVSASEDATIKVWDYETGDFERTLKGHTDSVQDISFDHSGKLLASCSADMTIKLWDFQGFECIRTMHGHDHNVSSVAIMPNGDHIVSASRDKTIKMWEVQTGYCVKTFTGHREWVRMVRPNQDGTLIASCSNDQTVRVWVVATKECKAELREHEHVVECISWAPESSYSSISEATGSETKKSGKPGPFLLSGSRDKTIKMWDVSTGMCLMTLVGHDNWVRGVLFHSGGKFILSCADDKTLRVWDYKNKRCMKTLNAHEHFVTSLDFHKTAPYVVTGSVDQTVKVWECR

System: human HL60 cells
Experiment: SWATH-MS proteomics, differential protein representation, akirin2 KO vs WT HL60 cells
Type: cell-based
Conditions: akirin2 KO vs WT HL60 cells
Summary of the method: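 First, proteins from wild-type and knockout cells are digested with trypsin by FASP. Next, pooled IDA runs generate a reference ion library. Then six samples of 5 µg each are acquired by data-independent SWATH, and protein areas are normalized to the summed area of all detected proteins.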

[1] = SWATH-MS, under-represented in KO
[2] = sheet "Under-represented in KO"

Molecule | Fold Change [1] | Log (Fold Change) [1] | Fold Change [2] | Log (Fold Change) [2]
B1 | 0.6925 | -0.1596 |  | 
B2 |  |  | 0.6881 | -0.1623
B3 |  |  | 0.6839 | -0.165
B4 |  |  | 0.3066 | -0.5134
B5 |  |  | 0.6832 | -0.1655
B6 | 0.6886 | -0.162 |  | 
B7 | 0.6912 | -0.1604 |  | 
B8 |  |  | 0.6873 | -0.1629
B9 |  |  | 0.6852 | -0.1642
B10 | 0.6899 | -0.1612 |  | 
B11 | 0.6907 | -0.1607 |  | 
B12 |  |  | 0.6845 | -0.1646
